One molecule from article PMC7513893 (Redox Biology, 2020) can be followed below.

Assay [1] has as its target ADAM17 cytoplasmic domain, wild type (ADAM17cyto^WT), recombinant (UniProt P78536 693-824). Nature of the assay: ELISA.
Assay [2] has as its target ADAM17 cytoplasmic domain mutant F730A (ADAM17cyto^F730A), recombinant (UniProt P78536 693-824, F730A). Nature of the assay: ELISA. In general terms: An ELISA detects its analyte on a solid surface through an enzyme-linked reagent.

ADAM17 cytoplasmic domain, wild type (ADAM17cyto^WT), recombinant, sequence (P78536 693-824): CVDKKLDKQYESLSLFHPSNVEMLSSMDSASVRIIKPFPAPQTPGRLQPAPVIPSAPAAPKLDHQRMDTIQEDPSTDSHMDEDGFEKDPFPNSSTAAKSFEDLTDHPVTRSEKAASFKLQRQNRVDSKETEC
ADAM17 cytoplasmic domain mutant F730A (ADAM17cyto^F730A), recombinant, sequence (P78536 693-824 F730A): as the sequence (P78536 693-824) above, with F38A counted along it

B1: Thioredoxin-1 (Trx-1), recombinant (enzyme, human, UniProt P10599 1-105, looked up)
chain: MVKQIESKTAFQEALDAAGDKLVVVDFSATWCGPCKMIKPFFHSLSEKYSNVIFLEVDVDDCQDVASECEVKCMPTFQFFKKGQKVGEFSGANKEKLEATINELV
As for B1, the binding result in assay [1] and in assay [2] was “binds” in each case.
